# From US20250376539A1 (KIRA PHARMACEUTICALS SUZHOU, published 2025)
# T1: recombinant human complement C2 (NP_000054.2), C-terminal 6His-tag, made in house (CHO cell expression) (human, UniProt P06681 21-752)
# T1 construct: a linker before the tag is not described; also called human C2; Human C2
# T1 sequence: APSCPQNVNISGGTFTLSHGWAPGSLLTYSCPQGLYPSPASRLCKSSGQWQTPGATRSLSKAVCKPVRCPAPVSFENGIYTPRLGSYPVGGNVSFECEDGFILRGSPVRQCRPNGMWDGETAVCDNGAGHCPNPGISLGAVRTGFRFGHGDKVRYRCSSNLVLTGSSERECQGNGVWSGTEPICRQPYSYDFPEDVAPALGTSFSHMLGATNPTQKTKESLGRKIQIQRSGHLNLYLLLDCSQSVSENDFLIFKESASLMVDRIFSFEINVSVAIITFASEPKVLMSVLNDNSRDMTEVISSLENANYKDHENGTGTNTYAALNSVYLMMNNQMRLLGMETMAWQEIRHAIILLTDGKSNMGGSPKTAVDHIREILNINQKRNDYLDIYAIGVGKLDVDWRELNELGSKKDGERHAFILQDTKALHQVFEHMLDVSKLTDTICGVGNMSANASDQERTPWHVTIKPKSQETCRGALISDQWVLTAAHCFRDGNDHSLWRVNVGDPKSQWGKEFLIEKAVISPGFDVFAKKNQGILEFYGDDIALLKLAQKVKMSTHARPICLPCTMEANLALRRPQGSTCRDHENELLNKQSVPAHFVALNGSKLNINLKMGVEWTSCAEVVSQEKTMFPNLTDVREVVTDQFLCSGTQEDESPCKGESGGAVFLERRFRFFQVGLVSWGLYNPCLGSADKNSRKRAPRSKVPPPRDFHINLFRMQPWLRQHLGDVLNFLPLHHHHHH
# B1: 3.2 H2-10 parental (antibody, V domains shown)
# VH: EVQLLESGGGLVQPGGSLRLSCAASGFTFRHYAMSWVRQAPGKGLEWVSLISGSGASTHYADSVKGRFTISRDNSENMLYLQMNSLRAEDTAVYYCAKDSLAVAGSEYFQHWGQGTLVTVSS
# VL: SYVLTQAPSVSVAPGQTARITCGGNYFGGKSVHWYQQRPGQAPVLVVYDDSDRPSGIPERFSGSKSGNTATLAISRVEAGDEAAYYCQVYDTSSDHWVFGGGTKLTVL
# notes: Histidine mutant of 3.2
# B2: 3.2 H2-10 × L1-2 (antibody, V domains shown)
# VH: EVQLLESGGGLVQPGGSLRLSCAASGFTFRHYAMSWVRQAPGKGLEWVSLISGSGASTHYADSVKGRFTISRDNSENMLYLQMNSLRAEDTAVYYCAKDSLAVAGSEYFQHWGQGTLVTVSS
# VL: SYVLTQAPSVSVAPGQTARITCGHNYFGGKSVHWYQQRPGQAPVLVVYDDSDRPSGIPERFSGSKSGNTATLAISRVEAGDEAAYYCQVYDTSSDHWVFGGGTKLTVL
# notes: Histidine mutant of 3.2
# B3: 3.2 H2-10 × L1-4 (antibody, V domains shown)
# VH: EVQLLESGGGLVQPGGSLRLSCAASGFTFRHYAMSWVRQAPGKGLEWVSLISGSGASTHYADSVKGRFTISRDNSENMLYLQMNSLRAEDTAVYYCAKDSLAVAGSEYFQHWGQGTLVTVSS
# VL: SYVLTQAPSVSVAPGQTARITCGGNHFGGKSVHWYQQRPGQAPVLVVYDDSDRPSGIPERFSGSKSGNTATLAISRVEAGDEAAYYCQVYDTSSDHWVFGGGTKLTVL
# notes: Histidine mutant of 3.2
# B4: 3.2 H2-10 × L1-7 (antibody, V domains shown)
# VH: EVQLLESGGGLVQPGGSLRLSCAASGFTFRHYAMSWVRQAPGKGLEWVSLISGSGASTHYADSVKGRFTISRDNSENMLYLQMNSLRAEDTAVYYCAKDSLAVAGSEYFQHWGQGTLVTVSS
# VL: SYVLTQAPSVSVAPGQTARITCGGNYFGHKSVHWYQQRPGQAPVLVVYDDSDRPSGIPERFSGSKSGNTATLAISRVEAGDEAAYYCQVYDTSSDHWVFGGGTKLTVL
# notes: Histidine mutant of 3.2
# B5: 3.2 H2-10 × L1-8 (antibody, V domains shown)
# VH: EVQLLESGGGLVQPGGSLRLSCAASGFTFRHYAMSWVRQAPGKGLEWVSLISGSGASTHYADSVKGRFTISRDNSENMLYLQMNSLRAEDTAVYYCAKDSLAVAGSEYFQHWGQGTLVTVSS
# VL: SYVLTQAPSVSVAPGQTARITCGGNYFGGHSVHWYQQRPGQAPVLVVYDDSDRPSGIPERFSGSKSGNTATLAISRVEAGDEAAYYCQVYDTSSDHWVFGGGTKLTVL
# notes: Histidine mutant of 3.2
# B6: 3.2 H2-10 × L2-1 (antibody, V domains shown)
# VH: EVQLLESGGGLVQPGGSLRLSCAASGFTFRHYAMSWVRQAPGKGLEWVSLISGSGASTHYADSVKGRFTISRDNSENMLYLQMNSLRAEDTAVYYCAKDSLAVAGSEYFQHWGQGTLVTVSS
# VL: SYVLTQAPSVSVAPGQTARITCGGNYFGGKSVHWYQQRPGQAPVLVVYHDSDRPSGIPERFSGSKSGNTATLAISRVEAGDEAAYYCQVYDTSSDHWVFGGGTKLTVL
# notes: Histidine mutant of 3.2
# B7: 3.2 H2-10 × L2-3 (antibody, V domains shown)
# VH: EVQLLESGGGLVQPGGSLRLSCAASGFTFRHYAMSWVRQAPGKGLEWVSLISGSGASTHYADSVKGRFTISRDNSENMLYLQMNSLRAEDTAVYYCAKDSLAVAGSEYFQHWGQGTLVTVSS
# VL: SYVLTQAPSVSVAPGQTARITCGGNYFGGKSVHWYQQRPGQAPVLVVYDDHDRPSGIPERFSGSKSGNTATLAISRVEAGDEAAYYCQVYDTSSDHWVFGGGTKLTVL
# notes: Histidine mutant of 3.2
# B8: 3.2 H2-10 × L2-5 (antibody, V domains shown)
# VH: EVQLLESGGGLVQPGGSLRLSCAASGFTFRHYAMSWVRQAPGKGLEWVSLISGSGASTHYADSVKGRFTISRDNSENMLYLQMNSLRAEDTAVYYCAKDSLAVAGSEYFQHWGQGTLVTVSS
# VL: SYVLTQAPSVSVAPGQTARITCGGNYFGGKSVHWYQQRPGQAPVLVVYDDSDHPSGIPERFSGSKSGNTATLAISRVEAGDEAAYYCQVYDTSSDHWVFGGGTKLTVL
# notes: Histidine mutant of 3.2
# B9: 3.2 H2-10 × L2-6 (antibody, V domains shown)
# VH: EVQLLESGGGLVQPGGSLRLSCAASGFTFRHYAMSWVRQAPGKGLEWVSLISGSGASTHYADSVKGRFTISRDNSENMLYLQMNSLRAEDTAVYYCAKDSLAVAGSEYFQHWGQGTLVTVSS
# VL: SYVLTQAPSVSVAPGQTARITCGGNYFGGKSVHWYQQRPGQAPVLVVYDDSDRHSGIPERFSGSKSGNTATLAISRVEAGDEAAYYCQVYDTSSDHWVFGGGTKLTVL
# notes: Histidine mutant of 3.2
# B10: 3.2 H2-10 × L2-7 (antibody, V domains shown)
# VH: EVQLLESGGGLVQPGGSLRLSCAASGFTFRHYAMSWVRQAPGKGLEWVSLISGSGASTHYADSVKGRFTISRDNSENMLYLQMNSLRAEDTAVYYCAKDSLAVAGSEYFQHWGQGTLVTVSS
# VL: SYVLTQAPSVSVAPGQTARITCGGNYFGGKSVHWYQQRPGQAPVLVVYDDSDRPHGIPERFSGSKSGNTATLAISRVEAGDEAAYYCQVYDTSSDHWVFGGGTKLTVL
# notes: Histidine mutant of 3.2
# B11: 3.2 H2-10 × L3-4 (antibody, V domains shown)
# VH: EVQLLESGGGLVQPGGSLRLSCAASGFTFRHYAMSWVRQAPGKGLEWVSLISGSGASTHYADSVKGRFTISRDNSENMLYLQMNSLRAEDTAVYYCAKDSLAVAGSEYFQHWGQGTLVTVSS
# VL: SYVLTQAPSVSVAPGQTARITCGGNYFGGKSVHWYQQRPGQAPVLVVYDDSDRPSGIPERFSGSKSGNTATLAISRVEAGDEAAYYCQVYHTSSDHWVFGGGTKLTVL
# notes: Histidine mutant of 3.2
# B12: 3.2 H2-10 × L3-5 (antibody, V domains shown)
# VH: EVQLLESGGGLVQPGGSLRLSCAASGFTFRHYAMSWVRQAPGKGLEWVSLISGSGASTHYADSVKGRFTISRDNSENMLYLQMNSLRAEDTAVYYCAKDSLAVAGSEYFQHWGQGTLVTVSS
# VL: SYVLTQAPSVSVAPGQTARITCGGNYFGGKSVHWYQQRPGQAPVLVVYDDSDRPSGIPERFSGSKSGNTATLAISRVEAGDEAAYYCQVYDHSSDHWVFGGGTKLTVL
# notes: Histidine mutant of 3.2
# B13: 3.2 H2-10 × L3-7 (antibody, V domains shown)
# VH: EVQLLESGGGLVQPGGSLRLSCAASGFTFRHYAMSWVRQAPGKGLEWVSLISGSGASTHYADSVKGRFTISRDNSENMLYLQMNSLRAEDTAVYYCAKDSLAVAGSEYFQHWGQGTLVTVSS
# VL: SYVLTQAPSVSVAPGQTARITCGGNYFGGKSVHWYQQRPGQAPVLVVYDDSDRPSGIPERFSGSKSGNTATLAISRVEAGDEAAYYCQVYDTSHDHWVFGGGTKLTVL
# notes: Histidine mutant of 3.2
# B14: 3.2 H2-10 × L3-11 (antibody, V domains shown)
# VH: EVQLLESGGGLVQPGGSLRLSCAASGFTFRHYAMSWVRQAPGKGLEWVSLISGSGASTHYADSVKGRFTISRDNSENMLYLQMNSLRAEDTAVYYCAKDSLAVAGSEYFQHWGQGTLVTVSS
# VL: SYVLTQAPSVSVAPGQTARITCGGNYFGGKSVHWYQQRPGQAPVLVVYDDSDRPSGIPERFSGSKSGNTATLAISRVEAGDEAAYYCQVYDTSSDHWHFGGGTKLTVL
# notes: Histidine mutant of 3.2
# Columns and labels:
# [1] = target: T1, recombinant human complement C2 …; experiment: BLI (Gator), antibody on probe; 600 s association at pH 7.4, 600 s dissociation at pH 7.4
# Protocol: (§1) The histidine mutant constructs in Table 4 were tested for their pH-dependent dissociation from human C2. Probe-immobilized anti-C2 antibodies were incubated with C2 at pH 7.4 for 600s, followed by a 600s dissociation period in K Buffer at pH 7.4 or pH 5.8. The data were processed and analyzed by the Gator evaluation software.
# [2] = target: T1, recombinant human complement C2 …; experiment: BLI (Gator); ratio of dissociation at pH 5.8 to pH 7.4
# Protocol: as §1
# [3] = target: T1, recombinant human complement C2 …; experiment: BLI (Gator), antibody on probe; 600 s association at pH 7.4, 600 s dissociation at pH 5.8
# Protocol: as §1
# [4] = target: T1, recombinant human complement C2 …; experiment: binding kinetics, neutral pH (BLI presumed)
Binder,Dissociation (%) pH 7.4 [1] [%],Fold dissociation pH 5.8/pH 7.4 [2] [fold],Dissociation (%) pH 5.8 [3] [%],Kd [4] [nM],koff [4] [s⁻¹],kon [4] [M⁻¹ s⁻¹]
B1,7.74,6.6,51.3,,,
B2,5.1,11.1,56.5,0.33,9.39e-05,284000
B3,5.9,9.5,55.8,0.28,8.18e-05,293000
B4,4.05,12.8,52,,,
B5,5,10.4,51.8,,,
B6,13.9,5.8,81.3,,,
B7,5.69,8.1,46.2,,,
B8,5.33,9.7,51.6,,,
B9,5.97,8.8,52.6,,,
B10,5.39,9.8,52.7,,,
B11,13.3,6.2,82.8,,,
B12,12.6,7.2,90.7,,,
B13,7,8.6,60,,,
B14,7.16,8.7,62.6,,,
